Assay [1] has as its target CD24(27-56aa)-GST NEOX-4 (human). The experiment in a line: ELISA.
The target is the same in assay [2]. The experiment in a line: ELISA. This is another data set of the same source. In general terms: ELISA stands for enzyme-linked immunosorbent assay.

Like-named read-outs stand apart in the source and are kept apart here.

CD24(27-56aa)-GST NEOX-4 (human), sequence (chain, as listed by the source): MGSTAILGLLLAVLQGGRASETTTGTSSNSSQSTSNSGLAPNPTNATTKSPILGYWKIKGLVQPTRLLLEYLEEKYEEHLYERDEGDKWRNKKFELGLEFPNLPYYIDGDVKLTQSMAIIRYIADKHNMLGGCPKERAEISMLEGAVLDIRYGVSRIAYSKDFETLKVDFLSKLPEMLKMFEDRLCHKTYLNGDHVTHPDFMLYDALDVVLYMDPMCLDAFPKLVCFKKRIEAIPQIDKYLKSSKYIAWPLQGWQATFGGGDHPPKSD

B1: huG14-137 (antibody, V domains shown)
VH: EVQLVESGGGLVKPGGSLRLSCAASGLTFSNYWGNWVRQAPGKGLEWVALIRLYSDNYAIHYAESVKGRFTISRDDSKSTVYLQMNSLKTEDTAVYYCTTGTDNWGQGTTVTVSS
VL: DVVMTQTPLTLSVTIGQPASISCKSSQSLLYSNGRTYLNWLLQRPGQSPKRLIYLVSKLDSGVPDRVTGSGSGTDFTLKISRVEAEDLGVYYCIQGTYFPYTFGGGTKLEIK
Take B1: it took 3.87 ng/mL to reach a half-maximal effect in assay [1] (EC50).

B2: huG14-204 (antibody, V domains shown)
VH: EVQLVESGGGLVKPGGSLRLSCAASGLTFSNYWMNWVRQAPGKGLEWVALIRLYSDNYAIHYAESVKGRFTISRDDSKSTVYLQMNSLKTEDTAVYYCTTGTDYWGQGTTVTVSS
VL: DVVMTQSPLSLPVTPGRPASISCKSSHSLLYSNGETYLNWLLQKPGQSPQRLIYLVSKLDSGVPDRFSGSGSGTDFTLKISRVEAEDLGVYYCIQGTYFPYTFGQGTKLEIK
For the molecule B2, the midpoint of the response in assay [2], the EC50, lay at 6.67 ng/mL.

B3: huG14-209 (antibody, V domains shown)
VH: EVQLVESGGGLVKPGGSLRLSCAASGLTFSNYWMNWVRQAPGKGLEWVALIRLYSDNYAIHYAESVKGRFTISRDDSKSTVYLQMNSLKTEDTAVYYCTTGTDYWGQGTTVTVSS
VL: DVVMTQSPLSLPVTPGRPASISCKSSHSLLYSNGKTYLNWLLQKPGQSPQRLIYLVSKLDSGVPDRFSGSGSGTDFTLKISRVEAEDLGVYYCIQGTYFPYTFGQGTKLEIK
On to B3, for which the half-maximal effective concentration (EC50) (usually the concentration giving half of the maximal effect) in assay [2] was found to be 4.13 ng/mL.

B4: huG14-132 (antibody, V domains shown)
VH: EVQLVESGGGLVKPGGSLRLSCAASGLTFSNYWMNWVRQAPGKGLEWVALIRLYSDNYAIHYAESVKGRFTISRDDSKSTVYLQMNSLKTEDTAVYYCTTGTDNWGQGTTVTVSS
VL: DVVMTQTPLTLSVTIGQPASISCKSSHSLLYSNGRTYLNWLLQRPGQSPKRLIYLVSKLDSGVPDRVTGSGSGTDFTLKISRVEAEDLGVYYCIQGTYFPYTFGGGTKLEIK
On to B4, for which, in assay [1], the EC50 amounted to 4.72 ng/mL.

B5: huG14-119 (antibody, V domains shown)
VH: EVQLVESGGGLVKPGGSLRLSCAASGLTFSNYWGNWVRQAPGKGLEWVALIRLYSDNYAIHYAESVKGRFTISRDDSKSTVYLQMNSLKTEDTAVYYCTTGTDYWGQGTTVTVSS
VL: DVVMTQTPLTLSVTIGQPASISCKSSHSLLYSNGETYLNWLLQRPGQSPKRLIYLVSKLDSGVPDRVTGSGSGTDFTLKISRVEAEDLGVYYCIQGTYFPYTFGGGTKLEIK
In the case of B5, in assay [1], the EC50 was determined as 8.93 ng/mL.

B6: huG14-122 (antibody, V domains shown)
VH: EVQLVESGGGLVKPGGSLRLSCAASGLTFSNYWGNWVRQAPGKGLEWVALIRLYSDNYAIHYAESVKGRFTISRDDSKSTVYLQMNSLKTEDTAVYYCTTGTDYWGQGTTVTVSS
VL: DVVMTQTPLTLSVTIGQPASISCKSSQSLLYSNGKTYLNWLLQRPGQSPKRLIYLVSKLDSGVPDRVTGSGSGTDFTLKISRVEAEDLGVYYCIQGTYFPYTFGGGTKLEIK
In assay [1], B6 registered an EC50 of 7.12 ng/mL.

B7: huG14-219 (antibody, V domains shown)
VH: EVQLVESGGGLVKPGGSLRLSCAASGLTFSNYWMNWVRQAPGKGLEWVALIRLYSDNYAIHYAESVKGRFTISRDDSKSTVYLQMNSLKTEDTAVYYCTTGTDNWGQGTTVTVSS
VL: DVVMTQSPLSLPVTPGRPASISCKSSHSLLYSNGKTYLNWLLQKPGQSPQRLIYLVSKLDSGVPDRFSGSGSGTDFTLKISRVEAEDLGVYYCVQGTYFPYTFGQGTKLEIK
On to B7, for which the concentration giving a half-maximal response (EC50) in assay [2] came out at 5.69 ng/mL.

B8: huG14-228 (antibody, V domains shown)
VH: EVQLVESGGGLVKPGGSLRLSCAASGLTFSNYWGNWVRQAPGKGLEWVALIRLYSDNYAIHYAESVKGRFTISRDDSKSTVYLQMNSLKTEDTAVYYCTTGTDNWGQGTTVTVSS
VL: DVVMTQSPLSLPVTPGRPASISCKSSQSLLYSNGKTYLNWLLQKPGQSPQRLIYLVSKLDSGVPDRFSGSGSGTDFTLKISRVEAEDLGVYYCIQGTYFPYTFGQGTKLEIK
The molecule B8 gave an EC50 in assay [2] of 9.88 ng/mL.

B9: huG14-213 (antibody, V domains shown)
VH: EVQLVESGGGLVKPGGSLRLSCAASGLTFSNYWGNWVRQAPGKGLEWVALIRLYSDNYAIHYAESVKGRFTISRDDSKSTVYLQMNSLKTEDTAVYYCTTGTDYWGQGTTVTVSS
VL: DVVMTQSPLSLPVTPGRPASISCKSSHSLLYSNGRTYLNWLLQKPGQSPQRLIYLVSKLDSGVPDRFSGSGSGTDFTLKISRVEAEDLGVYYCVQGTYFPYTFGQGTKLEIK
Consider B9, for which, in assay [2], the concentration for a half-maximal effect (EC50) is 3.29 ng/mL.

B10: huG14-210 (antibody, V domains shown)
VH: EVQLVESGGGLVKPGGSLRLSCAASGLTFSNYWMNWVRQAPGKGLEWVALIRLYSDNYAIHYAESVKGRFTISRDDSKSTVYLQMNSLKTEDTAVYYCTTGTDYWGQGTTVTVSS
VL: DVVMTQSPLSLPVTPGRPASISCKSSHSLLYSNGRTYLNWLLQKPGQSPQRLIYLVSKLDSGVPDRFSGSGSGTDFTLKISRVEAEDLGVYYCIQGTYFPYTFGQGTKLEIK
Molecule B10 displayed a concentration giving a half-maximal response (EC50) in assay [2] of 4.26 ng/mL.

B11: huG14-229 (antibody, V domains shown)
VH: EVQLVESGGGLVKPGGSLRLSCAASGLTFSNYWGNWVRQAPGKGLEWVALIRLYSDNYAIHYAESVKGRFTISRDDSKSTVYLQMNSLKTEDTAVYYCTTGTDNWGQGTTVTVSS
VL: DVVMTQSPLSLPVTPGRPASISCKSSQSLLYSNGRTYLNWLLQKPGQSPQRLIYLVSKLDSGVPDRFSGSGSGTDFTLKISRVEAEDLGVYYCIQGTYFPYTFGQGTKLEIK
Regarding B11, the EC50 in assay [2] worked out at 9.1 ng/mL.

B12: huG14-225 (antibody, V domains shown)
VH: EVQLVESGGGLVKPGGSLRLSCAASGLTFSNYWGNWVRQAPGKGLEWVALIRLYSDNYAIHYAESVKGRFTISRDDSKSTVYLQMNSLKTEDTAVYYCTTGTDNWGQGTTVTVSS
VL: DVVMTQSPLSLPVTPGRPASISCKSSHSLLYSNGETYLNWLLQKPGQSPQRLIYLVSKLDSGVPDRFSGSGSGTDFTLKISRVEAEDLGVYYCIQGTYFPYTFGQGTKLEIK
In assay [2], B12 displayed a concentration giving a half-maximal response (EC50) of 6.28 ng/mL.

B13: huG14-205 (antibody, V domains shown)
VH: EVQLVESGGGLVKPGGSLRLSCAASGLTFSNYWMNWVRQAPGKGLEWVALIRLYSDNYAIHYAESVKGRFTISRDDSKSTVYLQMNSLKTEDTAVYYCTTGTDYWGQGTTVTVSS
VL: DVVMTQSPLSLPVTPGRPASISCKSSHSLLYSNGKTYLNWLLQKPGQSPQRLIYLVSKLDSGVPDRFSGSGSGTDFTLKISRVEAEDLGVYYCVQGTYFPYTFGQGTKLEIK
In assay [2], B13 yielded a concentration giving a half-maximal response (EC50) of 6.28 ng/mL.

B14: huG14-118 (antibody, V domains shown)
VH: EVQLVESGGGLVKPGGSLRLSCAASGLTFSNYWMNWVRQAPGKGLEWVALIRLYSDNYAIHYAESVKGRFTISRDDSKSTVYLQMNSLKTEDTAVYYCTTGTDYWGQGTTVTVSS
VL: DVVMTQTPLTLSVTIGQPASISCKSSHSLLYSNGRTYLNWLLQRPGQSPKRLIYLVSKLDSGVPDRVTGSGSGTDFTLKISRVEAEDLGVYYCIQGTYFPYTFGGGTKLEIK
B14 displayed an EC50 in assay [1] of 4.83 ng/mL.

B15: huG14-123 (antibody, V domains shown)
VH: EVQLVESGGGLVKPGGSLRLSCAASGLTFSNYWGNWVRQAPGKGLEWVALIRLYSDNYAIHYAESVKGRFTISRDDSKSTVYLQMNSLKTEDTAVYYCTTGTDYWGQGTTVTVSS
VL: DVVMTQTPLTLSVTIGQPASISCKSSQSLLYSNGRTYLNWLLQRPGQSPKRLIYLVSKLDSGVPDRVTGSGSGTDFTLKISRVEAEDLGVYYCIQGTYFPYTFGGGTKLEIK
The molecule B15 had an EC50 in assay [1] of 3.86 ng/mL.

B16: huG14-126 (antibody, V domains shown)
VH: EVQLVESGGGLVKPGGSLRLSCAASGLTFSNYWMNWVRQAPGKGLEWVALIRLYSDNYAIHYAESVKGRFTISRDDSKSTVYLQMNSLKTEDTAVYYCTTGTDNWGQGTTVTVSS
VL: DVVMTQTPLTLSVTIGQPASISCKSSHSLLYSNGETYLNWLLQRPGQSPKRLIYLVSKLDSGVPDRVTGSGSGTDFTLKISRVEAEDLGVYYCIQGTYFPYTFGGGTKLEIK
Take B16: it took 3.93 ng/mL to reach a half-maximal effect in assay [1] (EC50).

B17: huG14-129 (antibody, V domains shown)
VH: EVQLVESGGGLVKPGGSLRLSCAASGLTFSNYWMNWVRQAPGKGLEWVALIRLYSDNYAIHYAESVKGRFTISRDDSKSTVYLQMNSLKTEDTAVYYCTTGTDNWGQGTTVTVSS
VL: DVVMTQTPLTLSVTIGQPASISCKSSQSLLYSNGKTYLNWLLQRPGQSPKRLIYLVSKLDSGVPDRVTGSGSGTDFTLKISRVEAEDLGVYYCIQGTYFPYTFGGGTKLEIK
Turning to B17, the EC50 in assay [1] was determined as 4.09 ng/mL.

B18: huG14-208 (antibody, V domains shown)
VH: EVQLVESGGGLVKPGGSLRLSCAASGLTFSNYWMNWVRQAPGKGLEWVALIRLYSDNYAIHYAESVKGRFTISRDDSKSTVYLQMNSLKTEDTAVYYCTTGTDYWGQGTTVTVSS
VL: DVVMTQSPLSLPVTPGRPASISCKSSQSLLYSNGRTYLNWLLQKPGQSPQRLIYLVSKLDSGVPDRFSGSGSGTDFTLKISRVEAEDLGVYYCIQGTYFPYTFGQGTKLEIK
Take B18: in assay [2], it took 4.02 ng/mL to reach a half-maximal effect (EC50).

B19: huG14-139 (antibody, V domains shown)
VH: EVQLVESGGGLVKPGGSLRLSCAASGLTFSNYWGNWVRQAPGKGLEWVALIRLYSDNYAIHYAESVKGRFTISRDDSKSTVYLQMNSLKTEDTAVYYCTTGTDNWGQGTTVTVSS
VL: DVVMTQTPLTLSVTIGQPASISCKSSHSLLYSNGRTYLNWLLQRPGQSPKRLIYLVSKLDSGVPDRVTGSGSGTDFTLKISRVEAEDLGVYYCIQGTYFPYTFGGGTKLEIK
The molecule B19 gave an EC50 in assay [1] of 3.17 ng/mL.

These data come from patent US20260347496 (published 2026).
